Measurements taken from PMC3212534, “Structural-Functional Characterization and Physiological Significance of Ferredoxin-NADP^+ Reductase from Xanthomonas axonopodis pv. citri” (PLoS ONE, 2011).

Key:
[1] = tested on: NC(=O)C1=CN([C@@H]2O[C@H](COP(=O)(O)OP(=O)(O)OC[C@H]3O[C@@H](n4cnc5c(N)ncnc54)[C@H](O)[C@@H]3O)[C@@H](O)[C@H]2O)C=CC1; assay: purified protein; details: 1 mM potassium ferricyanide as acceptor, 50 mM Tris-HCl pH 8.0, 30 °C
[2] = tested on: NC(=O)C1=CN([C@@H]2O[C@H](COP(=O)(O)OP(=O)(O)OC[C@H]3O[C@@H](n4cnc5c(N)ncnc54)[C@H](OP(=O)(O)O)[C@@H]3O)[C@@H](O)[C@H]2O)C=CC1; assay: purified protein; details: potassium ferricyanide as acceptor, 50 mM Tris-HCl pH 8.0, 30 °C
Ec-FNR = biological target: T1, Ec-FNR (Escherichia coli, UniProt P28861); assay: UV-visible difference spectroscopy; assay type: binding; details: 0.3 mM NADP+; Kd in Table 1 is quoted from reference 49
T1 construct: gene fpr; subclass II bacterial FNR; preparation not described here
T1 sequence (P28861 2-248): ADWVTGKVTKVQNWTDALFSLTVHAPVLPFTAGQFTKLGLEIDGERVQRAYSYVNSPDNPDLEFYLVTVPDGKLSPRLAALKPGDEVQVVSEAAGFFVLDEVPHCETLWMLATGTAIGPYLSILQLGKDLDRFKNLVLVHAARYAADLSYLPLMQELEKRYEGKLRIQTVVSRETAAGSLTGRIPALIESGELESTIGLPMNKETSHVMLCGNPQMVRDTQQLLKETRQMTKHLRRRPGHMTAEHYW

Xac-FNR = biological target: T2, Xac-FNR (Xanthomonas citri, UniProt A0AAI7ZED9); assay: difference absorption spectroscopy titration; assay type: binding; details: read-out: NADPH / K d
T2 construct: gene fpr; entire coding region in pET28a, N-terminal His6 tag cut with thrombin; expressed in E. coli BL21(DE3)pLysS; FAD-containing subclass I bacterial FNR
T2 sequence (A0AAI7ZED9 entry or part of it): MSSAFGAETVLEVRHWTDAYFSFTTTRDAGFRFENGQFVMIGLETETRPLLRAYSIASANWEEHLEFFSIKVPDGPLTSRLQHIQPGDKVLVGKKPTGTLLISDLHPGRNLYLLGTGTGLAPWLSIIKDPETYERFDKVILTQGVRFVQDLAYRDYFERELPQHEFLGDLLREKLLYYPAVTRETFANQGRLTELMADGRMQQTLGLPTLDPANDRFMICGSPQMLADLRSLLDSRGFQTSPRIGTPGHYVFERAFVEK
Description: difference absorption spectroscopy titration on Xac-FNR

pea-FNR = biological target: T3, pea-FNR (Lathyrus oleraceus, UniProt P10933); assay: UV-visible difference spectroscopy; assay type: binding; details: 0.3 mM NADP+; Kd in Table 1 is quoted from reference 49
T3 construct: gene PETH; plastidic FNR; preparation not described here
T3 sequence (P10933 53-360): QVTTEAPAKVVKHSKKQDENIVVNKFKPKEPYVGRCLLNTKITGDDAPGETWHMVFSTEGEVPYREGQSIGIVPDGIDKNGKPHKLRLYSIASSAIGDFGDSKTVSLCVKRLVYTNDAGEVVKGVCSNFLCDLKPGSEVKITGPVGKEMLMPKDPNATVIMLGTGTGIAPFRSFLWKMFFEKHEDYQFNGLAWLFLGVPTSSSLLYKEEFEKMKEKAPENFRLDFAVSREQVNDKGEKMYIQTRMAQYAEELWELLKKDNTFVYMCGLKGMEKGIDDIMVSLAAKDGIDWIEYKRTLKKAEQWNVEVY

Compound | Km [1] | kcat [1] | kcat/Km [1] | Km [2] | kcat [2] | kcat/Km [2] | UV-visible difference spectroscopy (Ec-FNR) | Kd (Xac-FNR) | UV-visible difference spectroscopy (pea-FNR)
Xac-FNR (Xanthomonas citri subsp. citri 306) | 3300 ± 1400 µM | 3.2 ± 1.3 s⁻¹ | 1000 M⁻¹ s⁻¹ | 10.8 ± 0.5 µM | 122 s⁻¹ | 1.13e+07 M⁻¹ s⁻¹ |  |  | 
NC(=O)c1ccc[n+]([C@@H]2O[C@H](COP(=O)(O)OP(=O)(O)OC[C@H]3O[C@@H](n4cnc5c(N)ncnc54)[C@H](OP(=O)(O)O)[C@@H]3O)[C@@H](O)[C@H]2O)c1 [NADP^+] |  |  |  |  |  |  | Differential UV-visible spectra elicited by the interaction between the enzymes and NADP^+ | 9.7 ± 0.4 µM | Differential UV-visible spectra elicited by the interaction between the enzymes and NADP^+
